Test results as given in patent US20150064134A1.

How the values were obtained:
Test in all cases: cell-based or functional assay
MEK1(h) (human) = MEK1(h) (human) (UniProt Q02750)
Pyk2(h) (human) = Pyk2(h) (human) (UniProt Q14289)
AMPKα2(h) (human) = AMPKα2(h) (human) (UniProt P54646)
Tie2(Y897S)(h) (human) = Tie2(Y897S)(h) (human) (UniProt Q02763)
CK1δ(h) (human) = CK1δ(h) (human) (UniProt P48730)
PKBγ(h) (human) = PKBγ(h) (human) (UniProt Q9Y243)
GSK3β(h) (human) = GSK3β(h) (human) (UniProt P49841)
PDGFRα(h) (human) = PDGFRα(h) (human) (UniProt P16234)
Sequence of PDGFRα(h) (human) (P16234 550-1089 limits assumed): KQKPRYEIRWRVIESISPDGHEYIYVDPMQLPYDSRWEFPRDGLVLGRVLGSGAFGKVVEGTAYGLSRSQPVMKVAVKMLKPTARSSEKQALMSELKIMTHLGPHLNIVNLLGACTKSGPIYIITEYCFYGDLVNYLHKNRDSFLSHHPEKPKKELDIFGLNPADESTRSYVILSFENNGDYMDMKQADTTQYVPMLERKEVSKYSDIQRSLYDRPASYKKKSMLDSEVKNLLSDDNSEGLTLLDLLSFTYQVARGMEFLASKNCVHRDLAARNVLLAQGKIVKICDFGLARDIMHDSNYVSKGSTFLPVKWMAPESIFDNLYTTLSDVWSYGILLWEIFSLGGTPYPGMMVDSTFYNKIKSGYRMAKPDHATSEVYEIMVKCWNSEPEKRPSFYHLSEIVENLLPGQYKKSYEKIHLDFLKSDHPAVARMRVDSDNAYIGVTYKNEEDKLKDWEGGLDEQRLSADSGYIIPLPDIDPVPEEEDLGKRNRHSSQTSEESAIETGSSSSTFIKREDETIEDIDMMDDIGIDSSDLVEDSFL

Ros(h) (human) = Ros(h) (human) (UniProt P08922)
Sequence of Ros(h) (human) (P08922 1883-2347 limits assumed): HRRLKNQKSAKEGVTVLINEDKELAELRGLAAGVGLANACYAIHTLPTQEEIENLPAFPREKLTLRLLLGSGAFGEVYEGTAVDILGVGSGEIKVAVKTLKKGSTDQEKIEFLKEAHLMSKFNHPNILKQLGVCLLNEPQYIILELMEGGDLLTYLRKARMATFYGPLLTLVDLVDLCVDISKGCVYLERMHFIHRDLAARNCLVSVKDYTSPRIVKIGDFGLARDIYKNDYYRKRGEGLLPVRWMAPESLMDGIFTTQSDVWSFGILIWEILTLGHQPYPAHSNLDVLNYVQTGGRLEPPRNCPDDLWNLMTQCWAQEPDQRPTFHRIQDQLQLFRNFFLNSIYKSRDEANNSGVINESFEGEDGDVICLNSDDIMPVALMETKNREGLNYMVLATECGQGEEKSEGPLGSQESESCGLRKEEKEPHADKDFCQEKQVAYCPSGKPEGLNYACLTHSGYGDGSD

ErbB4(h) (human) = ErbB4(h) (human) (UniProt Q15303)
Sequence of ErbB4(h) (human) (Q15303 706-991 limits assumed): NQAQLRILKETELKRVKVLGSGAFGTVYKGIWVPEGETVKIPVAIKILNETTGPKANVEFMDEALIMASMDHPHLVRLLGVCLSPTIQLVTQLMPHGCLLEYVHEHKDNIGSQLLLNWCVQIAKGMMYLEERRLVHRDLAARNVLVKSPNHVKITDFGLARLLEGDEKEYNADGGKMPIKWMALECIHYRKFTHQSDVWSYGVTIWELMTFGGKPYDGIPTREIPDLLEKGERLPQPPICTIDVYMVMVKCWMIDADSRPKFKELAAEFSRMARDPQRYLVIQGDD

PKCµ(h) (human) = molecular target: T1, PKCµ(h) (human) (UniProt Q15139)
T1 sequence (looked up): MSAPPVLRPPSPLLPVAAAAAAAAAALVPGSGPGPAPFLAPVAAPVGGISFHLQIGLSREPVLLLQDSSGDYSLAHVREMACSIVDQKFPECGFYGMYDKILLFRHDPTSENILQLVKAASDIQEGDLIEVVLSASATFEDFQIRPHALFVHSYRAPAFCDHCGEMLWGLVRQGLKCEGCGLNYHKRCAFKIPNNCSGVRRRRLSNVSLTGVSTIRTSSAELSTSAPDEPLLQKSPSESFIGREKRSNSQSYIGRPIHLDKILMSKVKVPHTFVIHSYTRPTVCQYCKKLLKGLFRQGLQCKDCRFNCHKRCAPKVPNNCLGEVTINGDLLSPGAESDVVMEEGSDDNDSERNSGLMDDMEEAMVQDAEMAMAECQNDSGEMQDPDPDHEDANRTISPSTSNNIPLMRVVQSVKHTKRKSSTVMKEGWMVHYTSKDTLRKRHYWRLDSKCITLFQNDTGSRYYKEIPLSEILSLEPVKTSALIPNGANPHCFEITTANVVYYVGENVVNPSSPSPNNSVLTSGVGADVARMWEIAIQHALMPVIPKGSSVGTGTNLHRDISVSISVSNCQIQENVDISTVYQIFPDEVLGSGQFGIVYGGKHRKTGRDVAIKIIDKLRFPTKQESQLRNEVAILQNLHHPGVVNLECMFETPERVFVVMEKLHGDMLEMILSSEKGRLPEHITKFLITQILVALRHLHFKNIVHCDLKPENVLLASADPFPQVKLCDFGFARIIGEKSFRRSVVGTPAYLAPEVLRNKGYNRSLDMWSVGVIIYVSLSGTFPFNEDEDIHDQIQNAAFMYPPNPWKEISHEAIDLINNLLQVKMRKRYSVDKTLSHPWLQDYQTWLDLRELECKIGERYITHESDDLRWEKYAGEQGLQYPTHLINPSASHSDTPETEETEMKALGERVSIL

NLK(h) (human) = molecular target: T2, NLK(h) (human) (UniProt Q9UBE8)
T2 sequence (looked up): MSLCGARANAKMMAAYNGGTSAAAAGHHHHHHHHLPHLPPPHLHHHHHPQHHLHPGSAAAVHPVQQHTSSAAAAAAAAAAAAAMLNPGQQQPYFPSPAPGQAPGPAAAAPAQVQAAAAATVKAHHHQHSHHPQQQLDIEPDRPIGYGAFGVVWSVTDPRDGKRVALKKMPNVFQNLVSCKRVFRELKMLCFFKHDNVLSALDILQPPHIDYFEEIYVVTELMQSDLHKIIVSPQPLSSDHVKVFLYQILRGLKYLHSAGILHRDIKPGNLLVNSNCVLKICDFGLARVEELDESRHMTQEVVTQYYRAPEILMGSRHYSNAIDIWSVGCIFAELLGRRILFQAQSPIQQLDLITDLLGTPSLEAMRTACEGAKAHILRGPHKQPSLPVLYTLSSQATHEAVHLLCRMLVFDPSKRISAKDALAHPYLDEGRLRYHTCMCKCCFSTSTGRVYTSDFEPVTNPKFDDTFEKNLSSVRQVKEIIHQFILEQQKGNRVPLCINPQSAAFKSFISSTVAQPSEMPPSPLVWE

Ret(h) (human) = molecular target: T3, Ret(h) (human) (UniProt P07949)
T3 sequence (looked up): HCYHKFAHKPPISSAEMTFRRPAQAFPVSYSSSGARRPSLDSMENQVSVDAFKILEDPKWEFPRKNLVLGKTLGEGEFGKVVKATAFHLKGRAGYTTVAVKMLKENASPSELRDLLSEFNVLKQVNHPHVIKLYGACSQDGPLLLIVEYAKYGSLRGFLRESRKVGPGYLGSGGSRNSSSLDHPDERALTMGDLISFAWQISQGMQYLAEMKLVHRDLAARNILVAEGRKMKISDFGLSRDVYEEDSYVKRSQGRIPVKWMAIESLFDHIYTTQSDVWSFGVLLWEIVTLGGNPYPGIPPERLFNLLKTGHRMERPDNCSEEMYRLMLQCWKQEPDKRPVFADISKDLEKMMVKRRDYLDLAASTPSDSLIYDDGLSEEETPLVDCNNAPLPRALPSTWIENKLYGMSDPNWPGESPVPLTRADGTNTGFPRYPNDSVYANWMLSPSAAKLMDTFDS

CaMKI(h) (human) = CaMKI(h) (human) (UniProt Q14012)
Flt3(D835Y)(h) (human) = molecular target: T4, Flt3(D835Y)(h) (human) (UniProt P36888)
T4 sequence (looked up): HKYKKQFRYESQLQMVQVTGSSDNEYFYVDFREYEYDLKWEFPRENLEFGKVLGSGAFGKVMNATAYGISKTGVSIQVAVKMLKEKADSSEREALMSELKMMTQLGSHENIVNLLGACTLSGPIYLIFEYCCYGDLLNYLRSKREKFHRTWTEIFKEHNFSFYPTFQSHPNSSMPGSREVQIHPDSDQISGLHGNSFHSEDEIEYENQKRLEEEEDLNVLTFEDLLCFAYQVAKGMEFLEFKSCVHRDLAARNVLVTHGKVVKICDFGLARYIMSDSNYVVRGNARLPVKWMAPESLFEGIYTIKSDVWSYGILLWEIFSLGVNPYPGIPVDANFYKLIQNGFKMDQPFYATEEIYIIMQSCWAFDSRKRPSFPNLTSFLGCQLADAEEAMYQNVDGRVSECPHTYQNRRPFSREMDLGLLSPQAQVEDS

CLK3(h) (human) = CLK3(h) (human) (UniProt P49761)

Sequence of Tie2(Y897S)(h) (human) (Q02763 771-1124 Y897S limits assumed): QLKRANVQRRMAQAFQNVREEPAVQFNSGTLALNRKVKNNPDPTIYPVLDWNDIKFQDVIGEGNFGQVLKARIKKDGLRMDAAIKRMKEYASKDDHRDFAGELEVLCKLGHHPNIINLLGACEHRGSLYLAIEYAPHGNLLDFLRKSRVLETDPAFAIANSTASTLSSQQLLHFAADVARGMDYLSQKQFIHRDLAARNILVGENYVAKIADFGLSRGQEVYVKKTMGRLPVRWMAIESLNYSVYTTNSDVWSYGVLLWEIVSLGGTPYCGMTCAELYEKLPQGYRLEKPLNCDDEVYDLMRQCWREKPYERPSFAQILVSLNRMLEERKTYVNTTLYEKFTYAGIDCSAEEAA
Sequence of PKBγ(h) (human) (Q9Y243 whole entry): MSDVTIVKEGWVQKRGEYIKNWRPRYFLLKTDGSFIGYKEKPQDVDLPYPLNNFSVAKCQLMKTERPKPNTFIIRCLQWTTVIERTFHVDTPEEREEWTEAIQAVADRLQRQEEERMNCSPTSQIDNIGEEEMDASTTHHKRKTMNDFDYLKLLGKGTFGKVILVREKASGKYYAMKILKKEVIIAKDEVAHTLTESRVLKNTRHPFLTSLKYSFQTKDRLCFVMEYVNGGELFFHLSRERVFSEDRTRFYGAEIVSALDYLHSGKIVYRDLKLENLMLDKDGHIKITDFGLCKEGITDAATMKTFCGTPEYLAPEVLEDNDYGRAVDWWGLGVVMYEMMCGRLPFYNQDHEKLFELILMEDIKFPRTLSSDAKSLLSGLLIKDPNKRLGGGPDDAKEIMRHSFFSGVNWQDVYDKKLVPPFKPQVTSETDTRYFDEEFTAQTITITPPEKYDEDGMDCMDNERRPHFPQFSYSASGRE

Row | % activity at 100 µM (MEK1(h) (human)) [%] | % activity at 100 µM (Pyk2(h) (human)) [%] | % activity at 100 µM (AMPKα2(h) (human)) [%] | % activity at 100 µM (Tie2(Y897S)(h) (human)) [%] | % activity at 100 µM (CK1δ(h) (human)) [%] | % activity at 100 µM (PKBγ(h) (human)) [%] | % activity at 100 µM (GSK3β(h) (human)) [%] | % activity at 100 µM (PDGFRα(h) (human)) [%] | % activity at 100 µM (Ros(h) (human)) [%] | % activity at 100 µM (ErbB4(h) (human)) [%] | % activity at 100 µM (PKCµ(h) (human)) [%] | % activity at 100 µM (NLK(h) (human)) [%] | % activity at 100 µM (Ret(h) (human)) [%] | % activity at 100 µM (CaMKI(h) (human)) [%] | % activity at 100 µM (Flt3(D835Y)(h) (human)) [%] | % activity at 100 µM (CLK3(h) (human)) [%] | Substance
1 | 77 | 47 | 54 | 83 | 92 | 20 | 205 | 65 | 95 | 40 | 22 | 87 | 140 | 1 | 80 | 61 | MMI-0300 (peptide)
2 | 77 | 34 | 58 | 87 | 93 | 41 | 202 | 40 | 99 | 0 | 14 | 90 | 145 | 0 | 71 | 84 | MMI-0400 (peptide)
3 | 21 | 46 | 9 | 80 | 78 | 20 | 238 | 40 | 150 | 2 | 10 | 19 | 174 | -1 | 65 | 76 | MMI-0500 (peptide)
